Reference: publication PMC3458555 (Nucleic Acids Research, 2012)
Like-named read-outs stand apart in the source and are kept apart here. Blank lines part the entries; values can stand above or below the molecule they belong to.

Assays:
[1] = target: Zfp206SCAN–Zfp110SCAN ΔH1 fusion protein (not stated | mouse) (UniProt Q3URR7); experiment: SEC
[2] = target: Zfp206SCANΔH1–Zfp110SCAN fusion protein (not stated | mouse) (UniProt Q3URR7); experiment: SEC
[3] = target: the molecule itself; experiment: SEC
[4] = target: the molecule itself
[5] = target: the molecule itself; experiment: SEC; remark: listed apart in the source

- stoichiometry N [1]: 2
Molecule: Zfp206SCAN–Zfp110SCAN ΔH1 fusion protein (from UniProt Q3URR7 36-128)

- stoichiometry N [2]: 2
Molecule: Zfp206SCANΔH1–Zfp110SCAN fusion protein (from UniProt Q3URR7 36-128)

B1: Zfp206SCAN (SCAN domain of Zfp206, tag-free) (domain or fragment)
chain: GRPRPEVAHQLFRCFQYQEDMGPRASLGRLRELCNHWLRPALHTKKQILELLVLEQFLSVLPPHVLSRLHGAPLRDGEEVAQLEGVPRDISHM
- stoichiometry N [3]: 2

B2: MBP-Zfp206SCAN (domain or fragment)
chain: GRPRPEVAHQLFRCFQYQEDMGPRASLGRLRELCNHWLRPALHTKKQILELLVLEQFLSVLPPHVLSRLHGAPLRDGEEVAQLEGVPRDISHM
- stoichiometry N [4]: 2

B3: Zfp206SCAN–ZNF174SCAN fusion protein (other)
chain: RPRPEVAHQLFRCFQYQEDMGPRASLGRLRELCNHWLRPALHTKKQILELLVLEQFLSVLPPHVLSRLHGQPLRDGEEVVQLLEGVPRDISHMRQGFRHFCYQEVSGPQEALSCLQQLCRQWLQPELHTKEQILELLVMEQFLVILPPEIQAQVWHRYPKSSREIVTLVEDLHR
- stoichiometry N [5]: 2

B4: Zfp110SCAN (SCAN domain of Zfp110) (domain or fragment, mouse, UniProt A0A0R4J249 154-247, looked up)
chain: RLTDTEASRQKFRHFQYEESAGPQKAMSQLRKLCHQWLQPNTRSKKQILELLVLEQFLNALPEKFRVWVESQHPEDCKAVVALLENMTSVSKDD
- stoichiometry N [3]: 2
